This note sets out measurements from the supplement of paper PMC7877785.

This data set can be described thus: self-splicing fitness, log relative to wild type (ln ratio); higher = more splicing; Tetrahymena group I intron in knt gene, E. coli kanamycin selection, DiMSum; sequences stand for … in CUCUCU…GGAGGGAAAAGUUAUCAGGCAUGCACCUGGUAGCUAGUCUUUAAACCAAUAGAUUGCAUCGGUUUAAAAGGCAAGACCGUCAAAUUGCGGGAAAGGGGUCAACAGCCGUUCAGUACCAAGUCUCAGGGGAAACUUUGAGAUGGCCUUGCAAAGGGUAUGGUAAUAAGCUGACGGACAUGGUCCUAACCACGCAGCCAAGUCCUAAGUCAACAGAUCUUCUGUUGAUAUGGAUGCAGUUCACAGACUAAAUGUCGGUCGGGGAAGAUGUAUUCUUCUCAUAAGAUAUAGUCGGACCUCUCCUUAAUGGGAGCUAGCGGAUGAAGUGAUGCAACACUGGAGCCGCUGGGAACUAAUUUGUAUGCGAAAGUAUAUUGAUUAGUUUUGGAGUACUCGUGGUCG
In short, it runs like this: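 Pooled colonies went to amplicon sequencing on an Illumina HiSeq 2500 after six replicate transformations. The plates were LB agar with 100 μg/mL carbenicillin, 50 μM IPTG and 0.2% rhamnose, with or without 25 μg/mL kanamycin, incubated overnight at 37°C or 30°C. The E. coli BL21(DE3) library had all eight P1ex-region intron nucleotides randomised, the intron placed in the knt kanamycin-resistance gene on pET-22b(+). DiMSum fitness is the error-weighted combination of replicate fold changes, kanamycin against none, normalised to wild type.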

± gives the uncertainty stated by the source.

In the case of UGUGAGCAAUAUUACGGUUA, the “self-splicing fitness (ln)” value is, setting by setting: (30 °C) -2.47 ± 0.2; (37 °C) -0.332 ± 0.16.

Consider CAAAAGCAAUAUUACGUACC, for which the “self-splicing fitness (ln)” value was -2.56 ± 0.15 (30 °C) and -1.33 ± 0.15 (37 °C).

On to GGAGAGCAAUAUUACGACUG, for which the “self-splicing fitness (ln)” value (37 °C) is -1.15 ± 0.27.

On to GCUAAGCAAUAUUACGGACG, for which the “self-splicing fitness (ln)” value is -0.941 ± 0.058 (30 °C) and -0.51 ± 0.074 (37 °C).

For CUAGAGCAAUAUUACGAGUU, the “self-splicing fitness (ln)” value is -3.23 ± 0.31 (30 °C) and -2.36 ± 0.3 (37 °C).

Consider UCUGAGCAAUAUUACGGUUG, for which the “self-splicing fitness (ln)” value (30 °C) was -3.75 ± 0.23 and the “self-splicing fitness (ln)” value (37 °C) was -3.15 ± 0.3.

For the sequence UUUCAGCAAUAUUACGCGUU, the “self-splicing fitness (ln)” value is, setting by setting: (30 °C) -2.13 ± 0.21; (37 °C) -0.852 ± 0.17.

Turning to AGCAAGCAAUAUUACGAGUA, the “self-splicing fitness (ln)” value (30 °C) is -1.67 ± 0.12 and the “self-splicing fitness (ln)” value (37 °C) was -0.688 ± 0.12.

On to CAGCAGCAAUAUUACGCUAU, for which the “self-splicing fitness (ln)” value by setting is: (30 °C) -2.47 ± 0.27; (37 °C) -2 ± 0.18.

On to CCUUAGCAAUAUUACGCCGA, for which the “self-splicing fitness (ln)” value by setting is: (30 °C) -2.16 ± 0.35; (37 °C) -1.98 ± 0.46.

In the case of GGCUAGCAAUAUUACGUUGA, the “self-splicing fitness (ln)” value by setting is: (30 °C) -1.26 ± 0.13; (37 °C) 0.455 ± 0.14.

For GCGGAGCAAUAUUACGUCGG, the “self-splicing fitness (ln)” value reads like this: (30 °C) -2.62 ± 0.12; (37 °C) -1.78 ± 0.17.

For the sequence AUUUAGCAAUAUUACGCCUC, under “37 °C”, the “self-splicing fitness (ln)” value was -0.949 ± 0.27.

In the case of AAAGAGCAAUAUUACGUACC, the “self-splicing fitness (ln)” value was -3.04 ± 0.19 (30 °C) and -2.03 ± 0.28 (37 °C).

UGCCAGCAAUAUUACGGACA: the “self-splicing fitness (ln)” value (30 °C) is -0.325 ± 0.074 and the “self-splicing fitness (ln)” value (37 °C) is -0.394 ± 0.09.

As for UGGGAGCAAUAUUACGAUUG, for the setting “37 °C”, the “self-splicing fitness (ln)” value was -2.29 ± 0.4.

For the sequence CCGGAGCAAUAUUACGAACA, the “self-splicing fitness (ln)” value runs as follows: (30 °C) -2.82 ± 0.41; (37 °C) -2.9 ± 0.32.

For GCCCAGCAAUAUUACGAAGG, the “self-splicing fitness (ln)” value by setting is: (30 °C) -3.32 ± 0.14; (37 °C) -2.42 ± 0.21.

As for CUCCAGCAAUAUUACGCUCG, the “self-splicing fitness (ln)” value runs as follows: (30 °C) -3.69 ± 0.27; (37 °C) -2.36 ± 0.39.

Take GGGCAGCAAUAUUACGAUGU: the “self-splicing fitness (ln)” value was -3.92 ± 0.3 (30 °C) and -0.5 ± 0.18 (37 °C).

Take CUUGAGCAAUAUUACGCUGC: the “self-splicing fitness (ln)” value (30 °C) is -2.39 ± 0.49.

Consider CGCUAGCAAUAUUACGUGGA, for which the “self-splicing fitness (ln)” value reads like this: (30 °C) -3.16 ± 0.2; (37 °C) -2.33 ± 0.18.

For CGUUAGCAAUAUUACGGUGU, the “self-splicing fitness (ln)” value by setting is: (30 °C) -3.37 ± 0.19; (37 °C) -2.29 ± 0.17.

As for AGGGAGCAAUAUUACGGGUA, the “self-splicing fitness (ln)” value (30 °C) was -3.37 ± 0.21 and the “self-splicing fitness (ln)” value (37 °C) was -2.64 ± 0.17.

As for UUAGAGCAAUAUUACGGGUU, the “self-splicing fitness (ln)” value runs as follows: (30 °C) -4.25 ± 0.42; (37 °C) -3.21 ± 0.35.

For the sequence CCUGAGCAAUAUUACGUCCG, the “self-splicing fitness (ln)” value reads like this: (30 °C) -3.25 ± 0.24; (37 °C) -1.93 ± 0.33.

For the sequence GAAUAGCAAUAUUACGAUUU, the “self-splicing fitness (ln)” value (30 °C) was -1.74 ± 0.12 and the “self-splicing fitness (ln)” value (37 °C) is -0.649 ± 0.11.

Turning to UAGGAGCAAUAUUACGCUCC, the “self-splicing fitness (ln)” value (37 °C) was -2.28 ± 0.25.

For GGCAAGCAAUAUUACGUCAA, the “self-splicing fitness (ln)” value is, setting by setting: (30 °C) -1.84 ± 0.14; (37 °C) -0.756 ± 0.12.

Take AGAUAGCAAUAUUACGUUUA: the “self-splicing fitness (ln)” value by setting is: (30 °C) -2.12 ± 0.13; (37 °C) -1.43 ± 0.13.

Consider CAGAAGCAAUAUUACGCCUC, for which, where the note is “37 °C”, the “self-splicing fitness (ln)” value is -0.543 ± 0.28.

With UAAAAGCAAUAUUACGGCUC, the “self-splicing fitness (ln)” value is, setting by setting: (30 °C) -1.05 ± 0.12; (37 °C) 0.168 ± 0.17.

For the sequence ACUCAGCAAUAUUACGGUUA, the “self-splicing fitness (ln)” value is -0.995 ± 0.08 (30 °C) and -0.513 ± 0.076 (37 °C).

On to CAAAAGCAAUAUUACGAUUA, for which the “self-splicing fitness (ln)” value (30 °C) is -0.53 ± 0.084 and the “self-splicing fitness (ln)” value (37 °C) is -0.187 ± 0.087.

With CGCUAGCAAUAUUACGUUGA, the “self-splicing fitness (ln)” value (30 °C) was -3.06 ± 0.17 and the “self-splicing fitness (ln)” value (37 °C) is -2.38 ± 0.14.

As for CUGUAGCAAUAUUACGUAGC, the “self-splicing fitness (ln)” value by setting is: (30 °C) -5.54 ± 0.36; (37 °C) -2.93 ± 0.32.

Turning to UUGCAGCAAUAUUACGCCUC, the “self-splicing fitness (ln)” value is, setting by setting: (30 °C) -2.47 ± 0.45; (37 °C) -0.787 ± 0.37.

As to GCUAAGCAAUAUUACGCUCA, the “self-splicing fitness (ln)” value is -1 ± 0.11 (30 °C) and -1.52 ± 0.14 (37 °C).

As to GAACAGCAAUAUUACGUGUC, the “self-splicing fitness (ln)” value is, setting by setting: (30 °C) -3.49 ± 0.14; (37 °C) -3.22 ± 0.17.
